Patent publication US20080107658A1 (AstraZeneca / MedImmune, published 2008)
Numbering of substitutions follows the chain as printed.

B1: 1133C11 human IgG4 (antibody, V domains shown)
VH: EVQLVQSGAEVKKPGSSVKVSCKASGGTFSTYGISWVRQAPGQGLEWIGGIIPIFDTGNSAQSFQGRVTITADESTSTAYMEVSSLRSDDTAVYYCASSSRIYDLNPSLTAYYDMDVWGQGTMVTVSS
VL: QAVLTQPSSVSTPPGQKVTISCSGSSSNIGNNYVSWYQQLPGTAPKLLIYDNNKRPSGIPDRFSGSKSGTSATLGITGLQTGDEADYYCGTWDSSLSAWVFGGGTKLTVL
B2: 1158A1 human IgG4 (antibody, V domains shown)
VH: B1 VH with D56G, L105H, N106H, P107N, S108H, L109V, T110G, A111G
VL: B1 VL with V34A, S94G
B3: 1160E3 human IgG4 (antibody, V domains shown)
VH: B1 VH with V18A
VL: QAVLTQPSSVSTPPGQKVTISCSGSNSNIGNNYVSWYQQLPGTAPKLLIYDNNKRPSGIPDRFSGSKSGTSATLGITGLQTGDEADYYCGTWDSSLSAWVFGGGTKLTV
B4: G1165D4 human IgG4 (antibody, V domains shown)
VH: B1 VH with E1Q, I48M, V83L, D89E, S98R
VL: B3 VL with A2S, S8P, T12A, P13A, N26S, G30E
B5: 1155H1 human IgG4 (antibody, V domains shown)
VH: B1 VH with L105F, N106H, P107L, S108A, L109N, T110K, A111G
VL: B1 VL with V18A, G75D
B6: 1218H5 human IgG4 (antibody, V domains shown)
VH: B1 VH with E10V, N59S
VL: B1 VL with I29T, P41S
B7: 1175H8 human IgG4 (antibody, V domains shown)
VH: B1 VH with G44R, L105A, N106T, P107T, S108G, A111P
VL: B1 VL with Q80R
B8: 1214A1 human IgG4 (antibody, V domains shown)
VH: EVQLVQSGAEVKKPGSSVRVSCKASGGTFSTYGISWVRQAPGQGLEWIGGIIPIFDTGNSAQSFQGRVTITADESTSTAYMEVSSLRSDDTAVYYCASSSRIYDAHLQAYYDMDVWGQGTMVTVSS
VL: B1 VL with S57P, W92R
B9: 1214D10 human IgG4 (antibody, V domains shown)
VH: B1 VH with V11A, Q43R, T69A, L105A, N106H, P107L, S108N, L109H, T110H, A111G
VL: B1 VL with T81A
B10: 1230H7 human IgG4 (antibody, V domains shown)
VH: B1 VH with V2M, L105F, P107S, S108A, T110I, A111S
VL: B3 VL with N26S
B11: 1211G10 human IgG4 (antibody, V domains shown)
VH: B1 VH with K12R, S25Y, I48V, G58R, L105M, N106V, P107S, S108T, T110I, A111P
VL: B1 VL
B12: 1152H5 human IgG4 (antibody, V domains shown)
VH: B1 VH with E46V, L105M, N106I, P107S, T110Q, A111P
VL: B1 VL with V18A
B13: 1165D4 human IgG4 (antibody, V domains shown)
VH: B1 VH
VL: B1 VL with G30E
B14: 1227H8 human IgG4 (antibody, V domains shown)
VH: QMQLVQSGAEVKKTGSSVKVSCKASGHTFAYHYLHWVRQAPGQGLEWMGGIIPIFGTTNYAQRFQDRVTITADESTSTAYMELSSLRSEDTAVYYCASADYAWESYQPPQINGVWGRGTMVTVSS
VL: QSVLTQPPSVSAAPGQKVTITCSGSTSNIGNNYVSWYQQHPGKAPKLMIYDVSKRPSGVPDRFSGSKSGNSASLDISGLQSEDEADYYCAAWDDSLSEFFFGTGTKLTVL
B15: 1230D8 human IgG4 (antibody, V domains shown)
VH: QMQLVQSGAEVKKTGSSVKVSCKASGYTFPYHYLHWVRQAPGQGLEWMGGIIPIFGTTNYAQRFQDRVTITADESTSTAYMEFSSLRSEDTAVYYCASADYVWESYHPATSLSLWGRGTMVTVSS
VL: B14 VL with T21S, S23P, H40R, G78E, F100L

target: mouse nerve growth factor (mouse, UniProt P01139 122-241); assay: cell-based or functional assay
Sequence (P01139 122-241): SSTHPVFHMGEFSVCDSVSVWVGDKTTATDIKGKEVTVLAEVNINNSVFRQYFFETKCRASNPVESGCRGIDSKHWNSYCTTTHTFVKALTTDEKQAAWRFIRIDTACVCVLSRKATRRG

| IC50, FLIPR calcium mobilisation | IC50, TF-1 cell proliferation | Binder |
| --- | --- | --- |
| 0.28 nM | 0.1 nM | B1 |
| 0.11 nM |  | B2 |
| 0.12 nM |  | B3 |
| 0.27 nM |  | B4 |
| 0.18 nM |  | B5 |
| 0.15 nM |  | B6 |
| 0.16 nM |  | B7 |
| 0.14 nM |  | B8 |
| 0.13 nM |  | B9 |
| 0.15 nM |  | B10 |
| 0.15 nM |  | B11 |
| 0.14 nM | 0.07 nM | B12 |
| 0.16 nM |  | B13 |
| 0.48 nM |  | B14 |
| 0.37 nM |  | B15 |

target: human nerve growth factor (beta-NGF) (human, UniProt P01138 122-241); assay: cell-based or functional assay
Sequence (P01138 122-241): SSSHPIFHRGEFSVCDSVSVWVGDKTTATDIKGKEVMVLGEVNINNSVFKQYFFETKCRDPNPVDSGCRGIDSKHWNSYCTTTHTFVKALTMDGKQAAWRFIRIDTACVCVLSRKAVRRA

| IC50, FLIPR calcium mobilisation | IC50, TF-1 cell proliferation | Binder | IC50, PC12 cell survival |
| --- | --- | --- | --- |
| 0.45 nM | 0.1 nM | B1 | 0.53 nM |
| 0.34 nM |  | B2 | 0.48 nM |
| 0.33 nM |  | B3 | 0.4 nM |
| 0.32 nM |  | B4 | 0.86 nM |
| 0.35 nM |  | B5 | 0.59 nM |
| 0.33 nM |  | B6 | 0.47 nM |
| 0.37 nM |  | B7 | 1.1 nM |
| 0.26 nM |  | B8 | 0.52 nM |
| 0.29 nM |  | B9 | 0.35 nM |
| 0.27 nM |  | B10 | 0.42 nM |
| 0.37 nM |  | B11 | 0.58 nM |
| 0.22 nM | 0.26 nM | B12 | 0.4 nM |
| 0.26 nM |  | B13 | 0.41 nM |
| 0.44 nM |  | B14 | 0.7 nM |
| 0.31 nM |  | B15 | 0.71 nM |

target: rat nerve growth factor (beta-NGF) (rat, UniProt P25427 122-241); assay: cell-based or functional assay
Sequence (P25427 122-241): as the sequence (P01139 122-241) above, with A40G, R50K, S61P, E94D, T117A counted along it

| IC50, FLIPR calcium mobilisation | IC50, TF-1 cell proliferation | Binder | IC50, PC12 cell survival |
| --- | --- | --- | --- |
| 0.3 nM | 0.12 nM | B1 | 0.42 nM |
| 0.12 nM |  | B2 |  |
| 0.13 nM |  | B3 |  |
| 0.33 nM |  | B4 | 2.63 nM |
| 0.18 nM |  | B5 |  |
| 0.13 nM |  | B6 |  |
| 0.15 nM |  | B7 |  |
| 0.16 nM |  | B8 | 0.43 nM |
| 0.14 nM |  | B9 |  |
| 0.18 nM |  | B10 | 0.32 nM |
| 0.16 nM |  | B11 |  |
| 0.21 nM | 0.08 nM | B12 | 0.38 nM |
| 0.15 nM |  | B13 | 0.41 nM |
| 0.43 nM |  | B14 | 35 nM |
| 0.29 nM |  | B15 | 37 nM |
